# Results as given in article PMC12375101.
# How the values were obtained:
# Aurora A [1] = biological target: Aurora A (UniProt O14965); assay: GST-Aurora A pull-down of MBP-Bora; details: reference: unphosphorylated MBP-Bora; sites S59
# Aurora A [2] = biological target: Aurora A (UniProt O14965); assay: Myc co-IP, Aurora A immunoblot; details: reference: wild type Bora-Myc; sites S59
# Aurora A [3] = biological target: Aurora A (UniProt O14965); assay: GFP co-IP, Aurora A immunoblot; details: reference: wild type Bora-GFP; sites S59
# Aurora A [4] = biological target: Aurora A (UniProt O14965); assay: co-IP of Bora-GFP, Aurora A immunoblot; details: reference: wild type Bora-GFP; sites S59
Substance,binding against the reference (Aurora A [1]),binding against the reference (Aurora A [2]),binding against the reference (Aurora A [3]),binding against the reference (Aurora A [4])
Bora (from UniProt Q6PGQ7) MBP-Bora-S59ph (genetic code expansion),stronger,,,
Bora (from UniProt Q6PGQ7) S59A,,weaker,weaker,weaker
